Experimental data as given in the supplement of paper PMC12764529.
± gives the half width of the 95% confidence interval.

Tests used:
[1] = folding stability dG unfold from trypsin proteolysis; higher = more stable
Outline: (§1)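 Designed mini-proteins (under 80 residues, no cysteine) in a PA-tagged cDNA display construct were digested with trypsin and chymotrypsin. Each protease was used at 11 concentrations (threefold dilutions) plus a no-protease condition, followed by sequencing. K50 was inferred by Bayesian fitting of sequencing counts, and unfolding free energy was derived against a sequence-predicted unfolded-state K50 and a shared folded-state K50, per protease or combined. Only designs with AlphaFold2 dimer inter-PAE above 15 were kept.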

[2] = folding stability dG unfold from chymotrypsin proteolysis; higher = more stable
Outline: as §1

[3] = folding stability dG unfold (combined trypsin and chymotrypsin); higher = more stable
Outline: as §1

Sequence	folding stability dG unfold [1]	folding stability dG unfold [2]	folding stability dG unfold [3]
SAGGSAGGSAGGMPTYEVTLEPDPTGGDVYTVTVTFPDGSTVTRNATPAELKAEGLTVKVSAGGSAGGSAGG [r7_14_JUSTAS]	1.09 ± 0.039 kcal/mol	0.88 ± 0.044 kcal/mol	0.967 ± 0.072 kcal/mol
SAGGSMVVVVKLKDGKKIELSVEELKKLAEELGLEPEEEDKEERLERIAKALAEKLGLEVEKVEVLSAGGSA [r2_83_TrROS_Hall]	4.09 ± 0.29 kcal/mol	2.74 ± 0.22 kcal/mol	3.33 ± 0.35 kcal/mol
SAGGSAKIEIPIMIPMPPGQEFDLKIRIPNLWKIKIERIYVSPDPGWIMFRIEIEPVAPPNDPEQMSAGGSA [r15_994_TrROS]	2.92 ± 0.17 kcal/mol	3.64 ± 0.071 kcal/mol	3.34 ± 0.21 kcal/mol
SMLNPDDPSVPERLVLVIPVPEEAVENGDFEVVRAKVEEAAEELEPLGWRVVSVEFDTETKEARLVLERPSA [r9_75_TrMRF]	3.76 ± 0.07 kcal/mol	3.506 ± 0.021 kcal/mol	3.617 ± 0.032 kcal/mol
SAGGSAGGSAEELVKYLAKEHGHPPGKEVTIPFDNWMIKIRYNNDGVPVGVEIKPMPPDDMSAGGSAGGSAG [r3_468_TrROS]	0.717 ± 0.025 kcal/mol	0.288 ± 0.12 kcal/mol	0.593 ± 0.098 kcal/mol
SAGGSAGGSAGPKIKIKKFPDFLIAEIEFPDGKKATAIFDPKTGKIIVFVGDKPIEIDIGSAGGSAGGSAGG [r11_846_TrMRF]	2.16 ± 0.059 kcal/mol	3.49 ± 0.09 kcal/mol	3.1 ± 0.07 kcal/mol
SAGGSAGGSAGYTVSVSVETETLKYLDPETGELVEEETLVRVTITITPPPPAPPNLPENLSAGGSAGGSAGG [r17_493_TrROS_Hall]	2.37 ± 0.23 kcal/mol	2.76 ± 0.051 kcal/mol	2.65 ± 0.23 kcal/mol
SAGGGDLEVELVEEREFTFPDGLRRRLLVVRFPDGFLAIPVYVRPPGGGWRLLARFVLRIGPPRPEEGSAGG [r13_494_TrMRF]	3.22 ± 0.054 kcal/mol	4.29 ± 0.043 kcal/mol	3.82 ± 0.08 kcal/mol
SAGGSAGGSAGGKPGEKKRYRFPAPKFELVSKVKVRVKVLNEDTNELYEKEVEVFVLKLTSAGGSAGGSAGG [r7_64_TrROS_Hall]	1.12 ± 0.045 kcal/mol	2.77 ± 0.16 kcal/mol	2.14 ± 0.21 kcal/mol
SAGGSAGGSAGHRSVMVTVDDIAKENGIKIPPGSYLMVTVEGNKVKDIMIQPMKPKPEDPSAGGSAGGSAGG [r11_616_TrROS]	-0.499 ± 0.44 kcal/mol	-0.0198 ± 0.24 kcal/mol	-0.17 ± 0.18 kcal/mol
SAGFTIEIENEDGKKITFRFPGWKIEIYPKDGIIMMRYPEENMSIMIKVDPNKIKIQVYDGGKWRWFPISAG [r5_786_TrROS]	2.86 ± 0.13 kcal/mol	3.92 ± 0.08 kcal/mol	3.69 ± 0.47 kcal/mol
SAGGSAGGSAMSPTEAERARPVPVVKTETTVTLDPSGYRVETVTYDGGVTETVVTPLPPELASAGGSAGGSA [r18_192_JUSTAS]	0.0994 ± 0.04 kcal/mol	-0.143 ± 0.11 kcal/mol	0.0301 ± 0.085 kcal/mol
SAGGSAEELLKKLKIVEVKEVDGKLYIEIEVDEPGLTVEEIKEILKELNLDVPIEVKEVVVVEEKESAGGSA [r15_599_TrROS_Hall]	1.69 ± 0.14 kcal/mol	2.16 ± 0.062 kcal/mol	1.98 ± 0.11 kcal/mol
SAGMKVILIIAPEEKIEEIFEEIKKIAEEHGLDLKLDKIEPLPEKGYLVIVTVKNPESDETTVILVLVPSAG [r5_41_TrMRF]	2.96 ± 0.096 kcal/mol	3.75 ± 0.077 kcal/mol	3.55 ± 0.12 kcal/mol
SAGGATITVEPAPGDSVVALAEFGDSLALVTFYPKEATAKVTVFGPNGIPSTATFTIKPGEELVITGSAGGS [r8_11_TrMRF]	1.25 ± 0.079 kcal/mol	1.59 ± 0.096 kcal/mol	1.47 ± 0.13 kcal/mol
SAGGFEFKAVKLKKNEEKEGELGGAKVRYVSDNKGPVYQVVEFGPEYRALAKVEGDKVELVAVEEGNPSAGG [r13_92_TrMRF]	-1.02 ± 0.66 kcal/mol	0.00343 ± 0.21 kcal/mol	-0.21 ± 0.16 kcal/mol

Sequence	folding stability dG unfold [1]	folding stability dG unfold [2]	folding stability dG unfold [3]
SAGGSAGGSAGPLTLTATFLSDYNYAVTVTLTFEVDENGNLSVSGEVEIRPVPPLGPGNASAGGSAGGSAGG [r11_728_TrMRF]	2.42 ± 0.1 kcal/mol	4.05 ± 0.11 kcal/mol	3.72 ± 0.15 kcal/mol
SAGGSAGGSAGSMSVSVTKLPNGDYVVTTTTSETSTSTTGSTPVTTTTTTTTVTTLPSSSSAGGSAGGSAGG [r17_432_JUSTAS]	2.21 ± 0.048 kcal/mol	0.775 ± 0.023 kcal/mol	1.57 ± 0.046 kcal/mol
SAGGSAGGSAGGMILVENPSLNESTVLSKDTPISSFKVPSDNSKVRIIIIYPSNSFVVISSAGGSAGGSAGG [r7_763_JUSTAS]	1.85 ± 0.073 kcal/mol	1.55 ± 0.14 kcal/mol	1.71 ± 0.088 kcal/mol
SAGGSAGGMELISEKPAKVKYGDKEAEVWVKLVKIPNTDEVLVTLYFPGSGKPRIIPAKDVEIESAGGSAGG [r6_263_TrMRF]	0.655 ± 0.1 kcal/mol	0.836 ± 0.18 kcal/mol	0.836 ± 0.19 kcal/mol
SAGGSAGGSAGMVIVDPERGYIYIPFPEDIEPEEFIEANKIPEFDIEVLEIGENIPVIKLSAGGSAGGSAGG [r17_323_TrMRF]	0.357 ± 0.047 kcal/mol	-0.0485 ± 0.12 kcal/mol	0.209 ± 0.096 kcal/mol
SAGSMEPGEVLNVTMTFYDTSGNKLGTVNFTFTDEEEAKKKIEELAKEIKEKLNKNVKVTVEINKSPSLSAG [r5_232_JUSTAS]	3.5 ± 0.25 kcal/mol	4.59 ± 0.23 kcal/mol	4.76 ± 0.78 kcal/mol
SAGGKLPLPPGTEVEFLFRSPLDPRRLYLVRVRFEPVPPDRLRLRPRVFNPETGEEVEFEFEVPLDEGSAGG [r13_268_TrMRF]	2.46 ± 0.041 kcal/mol	3.234 ± 0.025 kcal/mol	3 ± 0.052 kcal/mol
SAGGMLEEVAEELAKELNATAREFTTVGDVPRILLTFKVPGSSTYLEVTLTLPPDGSVERTTKPIAASAGGS [r16_433_JUSTAS]	0.974 ± 0.047 kcal/mol	1.7 ± 0.17 kcal/mol	1.3 ± 0.14 kcal/mol
SMVKVEIEEENGEKTIRIVNEETGVVVEIKFPEGEEVIEVPSVEELVEELKELGENIEITKIEPLSEEELSA [r9_1102_TrROS_Hall]	0.425 ± 0.14 kcal/mol	0.497 ± 0.084 kcal/mol	0.661 ± 0.25 kcal/mol
QRTVYIPIRGMPPDQMVDMIRMALRQAREKGHPNRTIRIWMPGPPEQRERARRYIKELADEPGLNVTIEGWS [r1_387_TrROS]	1.71 ± 0.029 kcal/mol	1.85 ± 0.08 kcal/mol	1.84 ± 0.055 kcal/mol
SASMTLTIPLPLKPGDRVVVEATHPLGYGFETEELPDGSVRLTLTVPTPDAPPATLHIRVYEPNTGKLASAG [r14_39_TrMRF]	2.28 ± 0.051 kcal/mol	3.24 ± 0.056 kcal/mol	2.85 ± 0.1 kcal/mol
SIIIQFDNPEEAKENAEDFINEFQDEFGPGQKIPITIHDPGGDPATFPIEIEPPPPPVEYDEENGKLKPDSA [r9_596_TrROS]	1.13 ± 0.18 kcal/mol	1.7 ± 0.17 kcal/mol	1.51 ± 0.43 kcal/mol
SMSIELDAESIEEIADFLKKAIEDGNPDAKIRIELYPLGGEREEREYDSIDEIIAELKKGPARIRIELEPSA [r9_589_TrMRF]	1.36 ± 0.037 kcal/mol	2.29 ± 0.11 kcal/mol	1.88 ± 0.11 kcal/mol
SAGGSAGGSASLDLSNATVLEEKTDPAKGLKTLTIKTPTSTLTITVEFDENGNPVKMTVFESAGGSAGGSAG [r3_5_JUSTAS]	1.71 ± 0.037 kcal/mol	2.2 ± 0.057 kcal/mol	2.03 ± 0.048 kcal/mol
SAGGSAGGSAGGKATLGEDGFLVIEREVELPDGPYRPETLVIPLPELTPEEVERLLETESAGGSAGGSAGGS [r10_1096_TrMRF]	1.24 ± 0.13 kcal/mol	0.919 ± 0.044 kcal/mol	1.05 ± 0.096 kcal/mol
